Columns and labels:
Assay in all cases: ITC
IscU I8K = IscU I8K (E. coli, UniProt P0ACD4 1-128, I8K)
IscU R15A = IscU R15A (E. coli, UniProt P0ACD4 1-128, R15A)
IscU Y11A = IscU Y11A (E. coli, UniProt P0ACD4 1-128, Y11A)

B1: HscA (natural protein)
chain: MALLQISEPGLSAAPHQRRLAAGIDLGTTNSLVATVRSGQAETLADHEGRHLLPSVVHYQQQGHSVGYDARTNAALDTANTISSVKRLMGRSLADIQQRYPHLPYQFQASENGLPMIETAAGLLNPVRVSADILKALAARATEALAGELDGVVITVPAYFDDAQRQGTKDAARLAGLHVLRLLNEPTAAAIAYGLDSGQEGVIAVYDLGGGTFDISILRLSRGVFEVLATGGDSALGGDDFDHLLADYIREQAGIPDRSDNRVQRELLDAAIAAKIALSDADSVTVNVAGWQGEISREQFNELIAPLVKRTLLACRRALKDAGVEADEVLEVVMVGGSTRVPLVRERVGEFFGRPPLTSIDPDKVVAIGAAIQADILVGNKPDSEMLLLDVIPLSLGLETMGGLVEKVIPRNTTIPVARAQDFTTFKDGQTAMSIHVMQGERELVQDCRSLARFALRGIPALPAGGAHIRVTFQVDADGLLSVTAMEKSTGVEASIQVKPSYGLTDSEIASMIKDSMSYAEQDVKARMLAEQKVEAARVLESLHGALAADAALLSAAERQVIDDAAAHLSEVAQGDDVDAIEQAIKNVDKQTQDFAARRMDQSVRRALKGHSVDEV
Q: For B1, which Kd (IscU I8K) is on record?
A: The Kd was 18.2 µM.

Q: What about the Kd (IscU R15A) of the same binder?
A: The Kd was 2.4 µM.

Q: What about the Kd (IscU Y11A) of the same binder?
A: Its Kd is 2.7 µM.

— publication doi:10.1101/2025.01.09.632086 (2025)
